Results: patent US20170088600A1 (published 2017)
Where two headings read alike, the source gives them in different places.

B1: TRAIL-R2-Fc F112A (Fc fusion)
chain: QQDLAPQQRAAPQQKRSSPSEGLCPPGHHISEDGRDCISCKYGQDYSTHWNDLLACLRCTRCDSGEVELSPCTTTRNTVCQCEEGTFREEDSPEMCRKCRTGCPRGMVKVGDCTPWSDIECVHKESGLVPRGS
B2: TRAIL-R2-Fc (human TRAIL-R2 aa 58-184, thrombin site, human IgG1 Fc), wild type (Fc fusion)
chain: QQDLAPQQRAAPQQKRSSPSEGLCPPGHHISEDGRDCISCKYGQDYSTHWNDLLFCLRCTRCDSGEVELSPCTTTRNTVCQCEEGTFREEDSPEMCRKCRTGCPRGMVKVGDCTPWSDIECVHKESGLVPRGS
B3: TRAIL-R2-Fc R154A (Fc fusion)
chain: QQDLAPQQRAAPQQKRSSPSEGLCPPGHHISEDGRDCISCKYGQDYSTHWNDLLFCLRCTRCDSGEVELSPCTTTRNTVCQCEEGTFREEDSPEMCAKCRTGCPRGMVKVGDCTPWSDIECVHKESGLVPRGS
B4: TRAIL-R2-Fc E78A/D109A (Fc fusion)
chain: QQDLAPQQRAAPQQKRSSPSAGLCPPGHHISEDGRDCISCKYGQDYSTHWNALLFCLRCTRCDSGEVELSPCTTTRNTVCQCEEGTFREEDSPEMCRKCRTGCPRGMVKVGDCTPWSDIECVHKESGLVPRGS
B5: TRAIL-R2-Fc V167A (Fc fusion)
chain: QQDLAPQQRAAPQQKRSSPSEGLCPPGHHISEDGRDCISCKYGQDYSTHWNDLLFCLRCTRCDSGEVELSPCTTTRNTVCQCEEGTFREEDSPEMCRKCRTGCPRGMVKAGDCTPWSDIECVHKESGLVPRGS
B6: TRAIL-R2-Fc M152A (Fc fusion)
chain: QQDLAPQQRAAPQQKRSSPSEGLCPPGHHISEDGRDCISCKYGQDYSTHWNDLLFCLRCTRCDSGEVELSPCTTTRNTVCQCEEGTFREEDSPEACRKCRTGCPRGMVKVGDCTPWSDIECVHKESGLVPRGS
B7: TRAIL-R2-Fc P150A (Fc fusion)
chain: QQDLAPQQRAAPQQKRSSPSEGLCPPGHHISEDGRDCISCKYGQDYSTHWNDLLFCLRCTRCDSGEVELSPCTTTRNTVCQCEEGTFREEDSAEMCRKCRTGCPRGMVKVGDCTPWSDIECVHKESGLVPRGS
B8: TRAIL-R2-Fc L110A/L114A (Fc fusion)
chain: QQDLAPQQRAAPQQKRSSPSEGLCPPGHHISEDGRDCISCKYGQDYSTHWNDALFCARCTRCDSGEVELSPCTTTRNTVCQCEEGTFREEDSPEMCRKCRTGCPRGMVKVGDCTPWSDIECVHKESGLVPRGS
B9: TRAIL-R2-Fc K155A (Fc fusion)
chain: QQDLAPQQRAAPQQKRSSPSEGLCPPGHHISEDGRDCISCKYGQDYSTHWNDLLFCLRCTRCDSGEVELSPCTTTRNTVCQCEEGTFREEDSPEMCRACRTGCPRGMVKVGDCTPWSDIECVHKESGLVPRGS
B10: TRAIL-R2-Fc D148A (Fc fusion)
chain: QQDLAPQQRAAPQQKRSSPSEGLCPPGHHISEDGRDCISCKYGQDYSTHWNDLLFCLRCTRCDSGEVELSPCTTTRNTVCQCEEGTFREEASPEMCRKCRTGCPRGMVKVGDCTPWSDIECVHKESGLVPRGS
B11: TRAIL (TNFSF10) ectodomain (ligand)
chain: TNELKQMQDKYSKSGIACFLKEDDSYWDPNDEESMNSPCWQVKWQLRQLVRKMILRTSEETISTVQEKQQNISPLVRERGPQRVAAHITGTRGRSNTLSSPNSKNEKALGRKINSWESSRSGHSFLSNLHLRNGELVIHEKGFYYIYSQTYFRFQEEIKENTKNDKQMVQYIYKYTSYPDPILLMKSARNSCWSKDAEYGLYSIYQGGIFELKENDRIFVSVTNEHLIDMDHEASFFGAFLVG

Tests used:
Assay in all cases: SPR
UL141 [1] = molecular target: UL141
UL141 [2] = molecular target: UL141; remark: listed apart in the source
UL141 [3] = molecular target: UL141; remark: listed apart in the source
UL141 [4] = molecular target: UL141; remark: listed apart in the source
[5] = molecular target: T1, TRAIL-R2-Fc M152A/R154A/K155A (human, UniProt O14763 58-184)
T1 chain: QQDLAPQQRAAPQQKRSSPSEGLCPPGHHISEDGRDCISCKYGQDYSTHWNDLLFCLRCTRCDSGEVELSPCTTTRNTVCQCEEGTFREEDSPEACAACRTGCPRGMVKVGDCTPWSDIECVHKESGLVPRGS

Row | Binder | Kd (UL141 [1]) [nM] | other results
1 | B1 | 630 | –
2 | B2 | 6 | Kd (UL141 [2]): 5.96 nM
3 | B3 | – | Kd (UL141 [3]): 6 nM
4 | B4 | – | Kd (UL141 [4]): 60 nM
5 | B5 | 15 | –
6 | B6 | – | Kd (UL141 [3]): 7 nM
7 | B7 | 8 | –
8 | B8 | 43 | –
9 | B9 | – | Kd (UL141 [3]): 8 nM
10 | B10 | 55 | –
11 | B11 | – | Kd [5]: 7 nM
